Like-named read-outs stand apart in the source and are kept apart here.

In assay [1] the target is human CD4 on the surface of CD4-expressing T cells (human). In words: IFA on MT2 T cells.
For assay [2] the target is unchanged.
Assay [3] shares this target. The source holds these as a separate data set.
Assay [4] shares this target. Nature of the assay: B4-biotin + FITC-avidin on MT2 T cells after medium alone.
In assay [5] the target is gp120 of HIV-1 primary isolate TH036 (clade E) (HIV-1).
Assay [6] concerns the target gp120 of HIV-1 primary isolate UG029 (clade A) (HIV-1).
For assay [7], the target named is gp120 of HIV-1 primary isolate VL 135 (clade B) (HIV-1).
In assay [8] the target is gp120 of HIV-1 primary isolate ZIM 748 (clade C) (HIV-1).
In assay [9] the target is gp120 of HIV-1 primary isolate UG266 (clade D) (HIV-1).

Take monoclonal antibody B4: in assay [1], the % Pos cells was greater than 95%. This substance returned a % Pos cells in assay [2] of 0%. In assay [3], this substance gave a 90% neutralization, MT-2 microplaque assay, HIV-1 DH12 (clade B) of 2.1 µg/mL; a 90% neutralization, MT-2 microplaque assay, HIV-1 TH036 (clade E) of 3.32 µg/mL; a 90% neutralization, MT-2 microplaque assay, HIV-1 UG266 (clade D) of 25.6 µg/mL; a 90% neutralization, MT-2 microplaque assay, HIV-1 UGO29 (clade A) of 6.76 µg/mL. For the same substance, in assay [3], the 90% neutralization, MT-2 microplaque assay, HIV-1 VL 135 (clade B) came to 1.54 µg/mL and the 90% neutralization, MT-2 microplaque assay, HIV-1 ZIM 748 (clade C) turned out to be 2.82 µg/mL. Besides, the % Pos cells in [4] was greater than 95%.

As to “recombinant human monoclonal antibody IgG1 b12”, in assay [5], the 90% neutralization, MT-2 microplaque assay, HIV-1 TH036 is greater than 50 µg/mL. The same substance registered a 90% neutralization, MT-2 microplaque assay, HIV-1 UGO29 in assay [6] of 38.5 µg/mL. This substance had a 90% neutralization, MT-2 microplaque assay, HIV-1 VL 135 in [7] of 41.7 µg/mL. In [8], this substance showed a 90% neutralization, MT-2 microplaque assay, HIV-1 ZIM 748 greater than 50 µg/mL. The substance also displayed a 90% neutralization, MT-2 microplaque assay, HIV-1 UG266 in assay [9] greater than 50 µg/mL.

These data come from US6090388.
